Measurements from patent publication EP2899279A1.

T1: Grapevine fanleaf virus strain F13 (purified viral particles) (Grapevine fanleaf virus, strain F13) (UniProt P18474)
T1 sequence (looked up): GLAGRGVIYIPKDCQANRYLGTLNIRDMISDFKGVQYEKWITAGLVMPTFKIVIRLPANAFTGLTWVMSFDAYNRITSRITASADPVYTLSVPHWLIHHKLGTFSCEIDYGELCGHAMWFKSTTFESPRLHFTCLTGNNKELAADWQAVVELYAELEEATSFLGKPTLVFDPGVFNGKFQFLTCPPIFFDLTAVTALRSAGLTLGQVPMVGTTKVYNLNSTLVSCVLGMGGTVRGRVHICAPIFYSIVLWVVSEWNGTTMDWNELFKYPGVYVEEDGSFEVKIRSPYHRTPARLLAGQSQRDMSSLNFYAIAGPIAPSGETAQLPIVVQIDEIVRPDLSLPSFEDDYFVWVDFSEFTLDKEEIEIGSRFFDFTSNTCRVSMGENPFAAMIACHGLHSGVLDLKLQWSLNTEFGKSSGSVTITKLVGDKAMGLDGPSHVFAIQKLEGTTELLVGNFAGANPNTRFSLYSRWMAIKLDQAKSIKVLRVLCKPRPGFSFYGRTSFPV


Legend:
[1] = biological target: T1, Grapevine fanleaf virus strain F13 (purified viral particles) (Grapevine fanleaf virus, strain F13); test: dynamic light scattering: GFLV-F13 at 0.1 mg/ml with Nb23:EGFP at 0.9 mg/ml; virus alone 32 nm
[2] = biological target: T1, Grapevine fanleaf virus strain F13 (purified viral particles) (Grapevine fanleaf virus, strain F13); test: dynamic light scattering: GFLV-F13 at 0.1 mg/ml with Nb23 at 0.1 mg/ml; virus alone 32 nm

| Binder | average hydrodynamic diameter of viral particles in the presence of the binder [1] | average hydrodynamic diameter of viral particles in the presence of the binder [2] |
| --- | --- | --- |
| Nb23:EGFP fusion protein (Nb23:EGFP:His6, expressed in E. coli) (protein, part only; not given: EGFP and cloning residues, not shown: large carriers) chain, part: QVQLQESGGGSVQVGGSLRVACAASGDTFSGYLAAWFRQAPGKGREGVAAINSKRHTTSYADSVKGRFTISKDNADNIMYLEMNSLKPEDTAIYYCAAADAIGLAEYWSTPTLSAARYKYWGQGTQVTVSSGGGSGGGHHHHHH | 43.8 nm | – |
| Nb23 (His6-tagged, purified from E. coli) (VHH) VHH: QVQLQESGGGSVQVGGSLRVACAASGDTFSGYLAAWFRQAPGKGREGVAAINSKRHTTSYADSVKGRFTISKDNADNIMYLEMNSLKPEDTAIYYCAAADAIGLAEYWSTPTLSAARYKYWGQGTQVTVSS | – | 37.8 nm |
